One molecule from paper PMC8831504 can be followed below.

This experiment deals with cpNanoLuc α-amylase biosensor (VHH-cpNanoLuc-VHH fusion). Description: luminescence titration of a single-component biosensor; 1 nM biosensor in 200 μl 20 mM Tris-HCl pH 7.2, 100 mM NaCl with 0.25 μl furimazine stock, titrated with its protein ligand; preincubated 15 min at room temperature; luminescence 445-470 nm; fit to a quadratic binding equation.
cpNanoLuc α-amylase biosensor (VHH-cpNanoLuc-VHH fusion), sequence (main, as listed by the source): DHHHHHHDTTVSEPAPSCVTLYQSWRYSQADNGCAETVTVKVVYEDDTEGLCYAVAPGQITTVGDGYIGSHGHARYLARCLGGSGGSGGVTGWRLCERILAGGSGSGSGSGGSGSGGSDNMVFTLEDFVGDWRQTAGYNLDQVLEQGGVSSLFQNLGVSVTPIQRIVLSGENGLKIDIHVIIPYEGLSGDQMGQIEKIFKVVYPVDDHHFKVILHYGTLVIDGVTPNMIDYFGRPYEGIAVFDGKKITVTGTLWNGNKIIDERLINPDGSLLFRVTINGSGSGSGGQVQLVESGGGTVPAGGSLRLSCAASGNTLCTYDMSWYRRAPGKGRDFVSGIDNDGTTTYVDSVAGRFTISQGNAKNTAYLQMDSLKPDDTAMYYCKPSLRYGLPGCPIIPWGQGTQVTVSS

B1: human α-amylase (enzyme)
chain: QYSSNTQQGRTSIVHLFEWRWVDIALECERYLAPKGFGGVQVSPPNENVAIHNPFRPWWERYQPVSYKLCTRSGNEDEFRNMVTRCNNVGVRIYVDAVINHMCGNAVSAGTSSTCGSYFNPGSRDFPAVPYSGWDFNDGKCKTGSGDIENYNDATQVRDCRLSGLLDLALGKDYVRSKIAEYMNHLIDIGVAGFRIDASKHMWPGDIKAILDKLHNLNSNWFPEGSKPFIYQEVIDLGGEPIKSSDYFGNGRVTEFKYGAKLGTVIRKWNGEKMSYLKNWGEGWGFMPSDRALVFVDNHDNQRGHGAGGASILTFWDARLYKMAVGFMLAHPYGFTRVMSSYRWPRYFENGKDVNDWVGPPNDNGVTKEVTINPDTTCGNDWVCEHRWRQIRNMVNFRNVVDGQPFTNWYDNGSNQVAFGRGNRGFIVFNNDDWTFSLTLQTGLPAGTYCDVISGDKINGNCTGIKIYVSDDGKAHFSISNSAEDPFIAIHAESKL
In turn, B1 had a Kd of 500 pM.

Broadly, the Kd is a measure of binding affinity in units of concentration. Read a low Kd as a tighter complex.
